{"source": "patent US20240148841A1", "target": "human IgG (of human serum; IgG against AAV8 in AAV8 positive human serum pools CP16 and P1) (human)", "experiment": "cell-based or functional assay", "data": [{"binder": "Xork1.3-Fc-HD-H435R (Fc fusion) MTLWADGVQVDDKDFKPSTENFGTNYLAAEYGIGKGYYDINKKFDGTDDDLCSGVVAANQLHWWLDRNKDYIEKYRQQSKDNGVTIGNTDIFELNKLHDEDQSNFFDFIKKSFGNKFLQPERLLNMYINGYGYLTSQDKAKTSQPSPSKLNFFQKVFKNNLLTDKTPINDIDEFSSQTKNALQNHKVLAVSFASIKNRGLGHVVTVWGADFDENGKVVALYVTDSDDRSKNIGNAKLGMKKLRIEVSAQDSSTIKLTGFEDKNSGGSLRHLYSLSTGEQIWKKYFEETEPKSSDKTHTCPPCPAPELLSSPSVFLFPPKPKDTLMISRTPEVTCVVVDVSHEDPEVKFNWYVDGVEVHNAKTKPREEQYNSTYRVVSVLTVLHQDWLNGKEYKCKVSNKALPAPIEKTISKAKGQPREPQVYTLPPSRDELTKNQVSLTCLVKGFYPSDIAVEWESNGQPENNYKTTPPVLDSDGSFFLYSKLTVDKSRWQQGNVFSCSVMHEALHNRYTQKSLSLSPG", "values": [{"measurement": "SEAP levels in passively immunized mice (% lower than in non-immunized controls)", "value": 20}]}]}
